Here are results for three molecules from US10213494B2, “Treatment of synucleinopathies” (The Brigham and Women's Hospital, Inc., priority 2007, dated 2019).

In one series the test system is GBA. The settings on record: Lieberman R et al., (2007); cited from earlier work.
Series [1] has as its system α-synuclein protein (wild-type, human) in MES23.5 cells. The experiment in a line: Sandwich ELISA of intracellular α-synuclein in MES23.5 cells co-transfected with wild-type human SNCA cDNA and lysosomal enzyme cDNA. It counts as cell-based. The conditions noted are these: GBA variant plasmid 5 μg per 10 cm dish + 0.5 μg SNCA cDNA, 24 hours after transfection, no prosaposin; mean+/−sem. How it is done:
Sera from six rabbits were raised and affinity-purified at Open Biosystems, Inc. (openbiosystems.com) against recombinant, full-length human αS. Recombinant αS had been HPLC- and MS-characterized and subjected to amino acid composition and protein concentration analyses. For ELISA, 384-well MaxiSorp plates (Nunc, Inc) were coated with 50 μl/well capturing polyclonal Ab (hSA-2) diluted in coating buffer (NaHCO3 with 0.2% NaN3, pH 9.6). Following washes with PBS/0.05% Tween-20 (PBS-T), plates were blocked for 2 hours at 37° C. in blocking buffer (1.125% fish skin gelatin; PBS-T). After 4 washes, samples were loaded and incubated at 4° C. for 12 hours. Biotinylated Syn-1 mAb (as the assaying Ab) was generated using 200 μg Sulfo-NHS-LC Biotin (Pierce), diluted in blocking buffer and added to the plate for 2 hours at 37° C. Following 4 washes, ExtrAvidin phosphatase (Sigma) diluted in blocking buffer was applied for 1 hr at 37° C. Color development was carried out by using Fast-p-Nitrophenyl Phosphate (Sigma) and monitored kinetically at OD 405 nm every 5 minutes for up to 60 minutes.
To optimize a ‘DNA: LIPOFECTAMINE® 2000’ ratio with low cell toxicity, MES23.5 cells were transfected with either 0.25, 0.5 or 1 μg αS-encoding, wild-type, human SNCA cDNA plus empty vector cDNA up to a total of 5.5 μg DNA per 10 cm dish. 24 hours after transfection, cell lysates were harvested as described above. For serial dilutions of cell lysates, blocking buffer containing 0.5% lysate from vector-transfected wells was used as diluent, which was also used to create the blank and the corresponding standard curve of recombinant human αS. Saturation kinetics were examined for identification of time point(s) where standards and sample dilutions were in the log phase.
MES cells were transfected with 0.5 μg per 10 cm dish of αS-encoding SNCA cDNA-carrying plasmid, plus 5 μg per 10 cm dish of wild-type or mutant, human GBA-encoding plasmid. The GBA variants used were wild type, N370S, D409H, L444P, E235A, and E340A. These 5 GBA mutants were created by site-directed mutagenesis, using the Quickchange® kit (Stratagene), and sequence-verified. The N370S, D409H and L444P are known to occur (in the homozygous or compound heterozygous state) in Gaucher disease in the heterozygous state in Parkinson Disease patients and/or patients with dementia with Lewy bodies. The E235A and E340A mutant GBA proteins are not known to occur in people.
24 hours after transfection, MES cells were lysed as described above and all lysates were analyzed by ELISA. […] This is in contrast to the result observed in Example 5 above. The observed discrepancy can reflect the differences in total DNA transfected in the two paradigms (FIG. 2B; FIG. 2C versus FIG. 4), thereby leading to changes in the DNA:LIPOFECTAMINE® 2000 ratio, and in the role of co-expressed prosaposin (saposin C). It is therefore conceivable that wild-type GBA can have variable effects on αS levels in these MES23.5 cells, depending on the rate of αS import into lysosomes and the composition as well as activation state of more than one lysosomal enzyme.
MES23.5 cells were transfected with 0.5 μg per 10 cm dish of an αS-encoding, wild-type, human SNCA cDNA-carrying plasmid (referred to as MES-hSNCA WT cells in the Western blot shown in FIG. 6), plus either 1.25, 2.5 or 5 μg per 10 cm dish of a human Cathepsin D-encoding CTSD cDNA plasmid, which was purchased from OriGene Technologies, Inc., and was under the control of a CMV promoter. The Cathepsin D clone was fully sequence-verified after isolation and maxiprep. Each transfection arm was balanced with empty vector DNA up to a total of 5.5 μg DNA per 10 cm dish. 24 hours after transfection, cells were lysed, and the resulting lysates were analyzed by the sandwich ELISA described herein. […]

Series [2] relates to α-synuclein protein in MES23.5 cells. The experiment in a line: Western blot of α-synuclein in co-transfected MES23.5 cells. The series is classed as cell-based, human. The conditions noted are these: 24 hours. How it is done: Cells were transfected with 0, 0.25, 0.5, 1, 5, and 10 μg (per 10 cm dish) of plasmid. 24 hours later, cells were washed with Tris-buffered saline and lysed in 140 mM NaCl, 50 mM Tris-Hcl, pH 8.0, 1 mM EDTA, 0.5% Triton-X100, and 1× protease inhibitors. Lysates were centrifuged at 100,000×g for 30 min at 4° C.; the top 2/3 of supernatants were removed and frozen in siliconized tubes at −80° C. Samples were run on SDS/PAGE, using 1 mM DTT as the reducing agent. Expression of the αS protein was confirmed at 24 hours post-transfection by Western blotting, where cell lysates were probed with a monoclonal antibody against αS protein (syn-1 antibody, BD Transduction Labs).
MES23.5 cells were transfected with 0.5 μg αS-encoding SNCA cDNA per 10 cm dish plus either 1.25, 2.5 or 5 μg (low, medium, or high) GBA-encoding cDNA in the absence or presence of 5 μg of Prosaposin-encoding cDNA. All arms of the experiment were balanced up to a total of 10.5 μg cDNA per 10 cm dish using empty vector cDNA. The GBA- and Prosaposin-encoding cDNA plasmids under a CMV promoter, as well as the pCMV-XL5 empty vector were purchased from OriGene Technologies, Inc (clones had been fully sequence-verified after isolation and a maxiprep). 24 hours later, cells were lysed and probed for GBA and αS protein levels. The upper panel in of FIG. 2B3 is a representation of a Western Blot indicating expression of GBA protein in the absence and presence of co-transfected prosaposin. GBA was probed using the monoclonal antibody 8E4. GBA over-expression occurred in a slightly gene-dosage dependent way in the absence of prosaposin. In the presence of prosaposin over-expression, the GBA signal itself was decreased. […]
Background: In western blotting, separated proteins are transferred to a membrane and probed.

In a further series the test system is MES-syn cells. Description: LDH release assay of cellular integrity. The series is classed as cell-based, rodent. The settings on record: enzyme cDNA 5 μg/10 cm dish, versus control vector transfected cells. How it is done:
To confirm that the effect of Cathepsin D on lowering of αS in MES23.5 cells was specific and was not caused by a general decrease in cellular metabolism and integrity, the MTT and LDH assays were performed on MES-syn cells that had been co-transfected with the highest amount of Cathepsin D-encoding cDNA (5 μg/10 cm dish). Lysis of cells with 0.1% Triton-X® 100 served as a positive control, representing maximal cell death.
To confirm that the effect of Cathepsin F on lowering of αS was specific and was not caused by a general decrease in cellular integrity, the LDH assay was performed on MES-syn cells that had been co-transfected with Cathepsin F-encoding CTSF cDNA (5 μg/10 cm dish). Lysis of cells with 0.1% Triton-X 100 served as a positive control for cell toxicity, promoting maximal cell death.

Series [3] relates to α-synuclein protein (wild-type, human) in MES23.5 cells. The experiment in a line: Sandwich ELISA of intracellular α-synuclein in MES23.5 cells co-transfected with wild-type human SNCA cDNA and lysosomal enzyme cDNA. The series is classed as cell-based. The conditions noted are these: cathepsin F cDNA 5 μg/10 cm dish, 24 hours, n=3.

For the molecule `OC[C@H]1CNC[C@@H](O)[C@@H]1O` [isofagomine], the “effect on GBA activity” value in the series on GBA is “increase GBA activity in mice and humans”.

B1: wild-type GBA: human acid-beta-glucocerebrosidase expressed from GBA-encoding cDNA plasmid under a CMV promoter (protein, UniProt P04062 40-536, looked up)
Lysosomal acid …: ARPCIPKSFGYSSVVCVCNATYCDSFDPPTFPALGTFSRYESTRSGRRMELSMGPIQANHTGTGLLLTLQPEQKFQKVKGFGGAMTDAAALNILALSPPAQNLLLKSYFSEEGIGYNIIRVPMASCDFSIRTYTYADTPDDFQLHNFSLPEEDTKLKIPLIHRALQLAQRPVSLLASPWTSPTWLKTNGAVNGKGSLKGQPGDIYHQTWARYFVKFLDAYAEHKLQFWAVTAENEPSAGLLSGYPFQCLGFTPEHQRDFIARDLGPTLANSTHHNVRLLMLDDQRLLLPHWAKVVLTDPEAAKYVHGIAVHWYLDFLAPAKATLGETHRLFPNTMLFASEACVGSKFWEQSVRLGSWDRGMQYSHSIITNLLYHVVGWTDWNLALNPEGGPNWVRNFVDSPIIVDITKDTFYKQPMFYHLGHFSKFIPEGSQRVGLVASQKNDLDAVALMHPDGSAVVVVLNRSSKDVPLTIKDPAVGFLETISPGYSIHTYLWRRQ
Turning to B1, the “intracellular α-synuclein level, % of vector cDNA control levels” value in series [1] is 109.7+/−9.88%. Also, the “α-synuclein protein level by Western blot” value in series [2] (GBA cDNA 1.25, 2.5 or 5 μg + 0.5 μg SNCA cDNA, absence of co-transfected prosaposin) is “lowered the co-expressed α-synuclein protein levels at the largest amount of co-transfected GBA cDNA”; in series [2] (GBA cDNA low/medium/high with 5 μg Prosaposin-encoding cDNA), “strong decrease in α-synuclein protein levels at even the lower concentrations”.

B2: cathepsin F: human lysosomal cysteine protease expressed from CTSF plasmid under a CMV promoter (protein, UniProt Q9UBX1 271-484, looked up)
Cathepsin F: APPEWDWRSKGAVTKVKDQGMCGSCWAFSVTGNVEGQWFLNQGTLLSLSEQELLDCDKMDKACMGGLPSNAYSAIKNLGGLETEDDYSYQGHMQSCNFSAEKAKVYINDSVELSQNEQKLAAWLAKRGPISVAINAFGMQFYRHGISRPLRPLCSPWLIDHAVLLVGYGNRSDVPFWAIKNSWGTDWGEKGYYYLHRGSGACGVNTMASSAVVD
In the case of B2, the LDH signal result with MES-syn cells was “less than or equal to that of control vector transfected cells”. The “intracellular α-synuclein level, % of control levels” value in series [3] is recorded as 51.7+/−14.1%.
